± gives the standard deviation.
Assay: collision cross section of modified peptide (TIMS, N2, iRT-aligned); higher = larger / more extended gas-phase ion
Method in brief: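 Collision cross section was derived from the Mason-Schamp equation. Each value averages 1–3 technical replicates of the most abundant feature per charge state, measured on a timsTOF Pro/HT in dda-PASEF mode (nitrogen, ~2.4 mbar) after a 120-min nanoflow C18 gradient at 60 °C. Synthetic peptide pools (~100 fmol/µL in 2% acetonitrile/0.1% formic acid, iRT standard spiked 1:40) were identified with MaxQuant, and 1/K0 was calibrated with three reference ions and aligned run-wise to the median iRT peptide deviation.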

[1] = charge state: 2, modification: Succinyl
[2] = charge state: 2, modification: hydroxyisobutyryl
[3] = charge state: 2, modification: Acetyl (K)
[4] = charge state: 2, modification: Biotin
[5] = charge state: 2, modification: Butyryl
[6] = charge state: 2, modification: Crotonyl
[7] = charge state: 2, modification: Dimethyl (K)
[8] = charge state: 3, modification: Dimethyl (K)
[9] = charge state: 2, modification: Formyl
[10] = charge state: 2, modification: Glutarylation
[11] = charge state: 2, modification: GlyGly (K)
[12] = charge state: 3, modification: GlyGly (K)
[13] = charge state: 2, modification: Malonyl
[14] = charge state: 2, modification: Methyl (K)
[15] = charge state: 3, modification: Methyl (K)
[16] = charge state: 2, modification: Propionyl
[17] = charge state: 2, modification: Trimethyl (K)
[18] = charge state: 3, modification: Trimethyl (K)

**Q.** With “TGGTQTDLFTCGKCK [_TGGTQTDLFTCGK(Succinyl)CK_]” as the sequence, how does the collision cross section [1] read?
**A.** The collision cross section was 437.09 Å².

**Q.** With “TGGTQTDLFTCGKCK [_TGGTQTDLFTCGK(hydroxyisobutyryl)CK_]” as the sequence, how does the collision cross section [2] read?
**A.** The collision cross section was 448.92 Å².

**Q.** For “TGPPGSTGSR [_TGPP(Hydroxyproline)GSTGSR_]”, which collision cross section (charge state: 2, modification: Hydroxyproline) is on record?
**A.** Its collision cross section is 312.97 ± 0.79 Å².

**Q.** With “TGPPGSTGSRGPPGPPGR [_TGPPGSTGSRGPPGPP(Hydroxyproline)GR_]” as the sequence, how does the collision cross section (charge state: 3, modification: Hydroxyproline) read?
**A.** The collision cross section was 472.54 ± 0.36 Å².

**Q.** Which collision cross section (charge state: 2, modification: Nitro (Y)) does the source give for THLAPYSDELR [_THLAPY(Nitro (Y))SDELR_] here?
**A.** Its collision cross section is 377.13 ± 2.5 Å².

**Q.** And the collision cross section (charge state: 3, modification: Nitro (Y))?
**A.** The collision cross section was 453.98 ± 1.8 Å².

**Q.** For “THLAPYSDELR [_THLAPY(Phospho (Y))SDELR_]”, which collision cross section (charge state: 2, modification: Phospho (Y)) is on record?
**A.** Its collision cross section is 373.88 ± 0.063 Å².

**Q.** What about the collision cross section (charge state: 3, modification: Phospho (Y)) of the same sequence?
**A.** The collision cross section was 446.73 ± 1.1 Å².

**Q.** For “THLGEALAPLSK [_THLGEALAPLS(HexNAc (ST))K_]”, which collision cross section (charge state: 2, modification: HexNAc (ST)) is on record?
**A.** The collision cross section was 397.68 ± 0.13 Å².

**Q.** What about the collision cross section (charge state: 3, modification: HexNAc (ST)) of the same sequence?
**A.** The collision cross section was 475.05 ± 25 Å².

**Q.** Which results are given for TLDEILQEKK [_TLDEILQEK(Acetyl (K))K_]?
**A.** collision cross section [3]: 377 ± 0.3 Å²; collision cross section (charge state: 3, modification: Acetyl (K)): 448.44 Å²

**Q.** With TLDEILQEKK [_TLDEILQEK(Biotin)K_] as the sequence, how does the collision cross section [4] read?
**A.** The collision cross section was 403.31 Å².

**Q.** Which collision cross section [5] does the source give for TLDEILQEKK [_TLDEILQEK(Butyryl)K_] here?
**A.** The collision cross section was 383.05 ± 1.3 Å².

**Q.** And the collision cross section (charge state: 3, modification: Butyryl)?
**A.** The collision cross section was 449.71 ± 2 Å².

**Q.** Which collision cross section [6] does the source give for TLDEILQEKK [_TLDEILQEK(Crotonyl)K_] here?
**A.** Its collision cross section is 381.71 ± 0.8 Å².

**Q.** And the collision cross section (charge state: 3, modification: Crotonyl)?
**A.** Its collision cross section is 444.38 ± 1.6 Å².

**Q.** What does the source list for TLDEILQEKK [_TLDEILQEK(Dimethyl (K))K_]?
**A.** collision cross section [7]: 379.42 ± 0.37 Å²; collision cross section [8]: 430.63 ± 2 Å²

**Q.** With TLDEILQEKK [_TLDEILQEK(Formyl)K_] as the sequence, how does the collision cross section [9] read?
**A.** The collision cross section was 372.98 ± 1.9 Å².

**Q.** Which collision cross section [10] does the source give for “TLDEILQEKK [_TLDEILQEK(Gluratylation)K_]” here?
**A.** The collision cross section was 387.75 ± 3.2 Å².

**Q.** And the collision cross section (charge state: 3, modification: Glutarylation)?
**A.** The collision cross section was 452.89 ± 2.4 Å².

**Q.** What does the source list for TLDEILQEKK [_TLDEILQEK(GlyGly (K))K_]?
**A.** collision cross section [11]: 390.82 ± 2.5 Å²; collision cross section [12]: 438.72 ± 1.6 Å²

**Q.** Which collision cross section [13] does the source give for TLDEILQEKK [_TLDEILQEK(Malonyl)K_] here?
**A.** Its collision cross section is 380.87 ± 4.1 Å².

**Q.** With TLDEILQEKK [_TLDEILQEK(Methyl (K))K_] as the sequence, how does the collision cross section [14] read?
**A.** The collision cross section was 377.9 ± 1.7 Å².

**Q.** And the collision cross section [15]?
**A.** Its collision cross section is 432.26 ± 5.2 Å².

**Q.** Which collision cross section [16] does the source give for TLDEILQEKK [_TLDEILQEK(Propionyl)K_] here?
**A.** The collision cross section was 380.38 Å².

**Q.** Which collision cross section [1] does the source give for TLDEILQEKK [_TLDEILQEK(Succinyl)K_] here?
**A.** Its collision cross section is 382.2 ± 5.9 Å².

**Q.** Which results are given for “TLDEILQEKK [_TLDEILQEK(Trimethyl (K))K_]”?
**A.** collision cross section [17]: 388.3 ± 0.013 Å²; collision cross section [18]: 439.75 ± 2.4 Å²

**Q.** For “TLDEILQEKK [_TLDEILQEK(hydroxyisobutyryl)K_]”, which collision cross section [2] is on record?
**A.** Its collision cross section is 386.54 ± 0.81 Å².

**Q.** For “TLHLSHLNRFPAR [_TLHLSHLNR(Citrullination (R))FPAR_]”, which collision cross section (charge state: 3, modification: Citrullination (R)) is on record?
**A.** The collision cross section was 509.04 ± 32 Å².

**Q.** With “TLHLSHLNRFPAR [_TLHLSHLNR(Methyl (R))FPAR_]” as the sequence, how does the collision cross section (charge state: 3, modification: Methyl (R)) read?
**A.** Its collision cross section is 503.65 Å².

**Q.** Which collision cross section [3] does the source give for “TLQKQSVVYGGK [_TLQK(Acetyl (K))QSVVYGGK_]” here?
**A.** Its collision cross section is 392.07 ± 0.61 Å².

**Q.** Which collision cross section [4] does the source give for TLQKQSVVYGGK [_TLQK(Biotin)QSVVYGGK_] here?
**A.** Its collision cross section is 406.33 Å².

**Q.** With TLQKQSVVYGGK [_TLQK(Butyryl)QSVVYGGK_] as the sequence, how does the collision cross section [5] read?
**A.** The collision cross section was 396.52 ± 0.85 Å².

**Q.** With TLQKQSVVYGGK [_TLQK(Crotonyl)QSVVYGGK_] as the sequence, how does the collision cross section [6] read?
**A.** The collision cross section was 396.64 ± 0.8 Å².

**Q.** Which results are given for “TLQKQSVVYGGK [_TLQK(Dimethyl (K))QSVVYGGK_]”?
**A.** collision cross section [7]: 397.97 ± 0.88 Å²; collision cross section [8]: 459.07 ± 1.6 Å²

**Q.** With TLQKQSVVYGGK [_TLQK(Formyl)QSVVYGGK_] as the sequence, how does the collision cross section [9] read?
**A.** The collision cross section was 387.94 ± 1 Å².

**Q.** Which collision cross section [10] does the source give for “TLQKQSVVYGGK [_TLQK(Gluratylation)QSVVYGGK_]” here?
**A.** Its collision cross section is 399.42 ± 0.6 Å².

**Q.** With “TLQKQSVVYGGK [_TLQK(GlyGly (K))QSVVYGGK_]” as the sequence, how does the collision cross section [11] read?
**A.** The collision cross section was 403.57 ± 1.5 Å².

**Q.** And the collision cross section [12]?
**A.** Its collision cross section is 459.43 ± 2 Å².

**Q.** For TLQKQSVVYGGK [_TLQK(Malonyl)QSVVYGGK_], which collision cross section [13] is on record?
**A.** Its collision cross section is 395.45 ± 1.1 Å².

**Q.** For “TLQKQSVVYGGK [_TLQK(Methyl (K))QSVVYGGK_]”, which collision cross section [14] is on record?
**A.** The collision cross section was 395.77 ± 1.4 Å².

**Q.** What about the collision cross section [15] of the same sequence?
**A.** The collision cross section was 446.7 ± 4.9 Å².

**Q.** Which collision cross section [16] does the source give for “TLQKQSVVYGGK [_TLQK(Propionyl)QSVVYGGK_]” here?
**A.** Its collision cross section is 393.92 ± 0.49 Å².

**Q.** With TLQKQSVVYGGK [_TLQK(Succinyl)QSVVYGGK_] as the sequence, how does the collision cross section [1] read?
**A.** Its collision cross section is 397.13 ± 0.77 Å².

**Q.** With “TLQKQSVVYGGK [_TLQK(Trimethyl (K))QSVVYGGK_]” as the sequence, how does the collision cross section [17] read?
**A.** Its collision cross section is 405 ± 1.6 Å².

**Q.** And the collision cross section [18]?
**A.** The collision cross section was 449.39 ± 2.4 Å².

— the supplement of paper PMC10598134
